From patent US20050221433A1

Target: recombinant human IL-18 (human) (UniProt Q14116)
Test: cell-based or functional assay

recombinant human IL-18 (human), sequence (Q14116 37-193 limits assumed): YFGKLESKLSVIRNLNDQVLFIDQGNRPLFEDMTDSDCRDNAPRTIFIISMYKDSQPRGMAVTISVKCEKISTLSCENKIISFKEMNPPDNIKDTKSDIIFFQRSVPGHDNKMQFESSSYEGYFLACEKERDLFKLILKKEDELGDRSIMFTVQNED
hIL18BPa (64-192).TG.hFc, sequence (O95998 other isoform, or with tags, fused parts or gaps): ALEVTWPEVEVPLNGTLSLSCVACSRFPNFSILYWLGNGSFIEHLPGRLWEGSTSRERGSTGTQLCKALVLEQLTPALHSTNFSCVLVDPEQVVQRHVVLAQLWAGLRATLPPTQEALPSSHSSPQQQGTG
hIL18BPa (1-192).His, sequence (O95998 31-194): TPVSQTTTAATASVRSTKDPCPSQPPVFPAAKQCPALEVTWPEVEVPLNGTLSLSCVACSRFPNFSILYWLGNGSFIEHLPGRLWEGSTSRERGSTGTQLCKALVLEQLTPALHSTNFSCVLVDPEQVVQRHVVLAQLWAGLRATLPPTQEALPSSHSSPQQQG
hIL18BPa (58-192).TG.his, sequence (O95998 other isoform, or with tags, fused parts or gaps): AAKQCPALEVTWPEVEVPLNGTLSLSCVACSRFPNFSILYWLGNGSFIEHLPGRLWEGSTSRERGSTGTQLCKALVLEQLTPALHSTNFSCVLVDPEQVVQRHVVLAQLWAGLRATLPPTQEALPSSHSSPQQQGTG
hIL18BPa (1-168).TG.hFc, sequence (O95998 other isoform, or with tags, fused parts or gaps): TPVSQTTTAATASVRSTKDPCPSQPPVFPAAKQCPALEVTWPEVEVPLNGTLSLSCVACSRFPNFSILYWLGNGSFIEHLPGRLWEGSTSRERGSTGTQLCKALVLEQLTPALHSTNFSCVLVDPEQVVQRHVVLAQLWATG

Row | Substance | IC50 (M), HEK293/NFkB-luciferase bioassay [M]
1 | hFc.TG.hIL18BPa (58-192) (C129S). (from UniProt O95998 60-194) (Fc fusion) | 1.51e-10
2 | hIL18BPa (1-168).TG.hFc (from UniProt O95998 31-170) (Fc fusion) | 1.75e-09
3 | hIL18BPa (1-192) (C49S, C129S).hIL18Rβ.hFc (Fc fusion) | 2.06e-10
4 | hIL18BPa (1-192) (C84S).TG.hFc (from UniProt O95998 31-194) (Fc fusion) | 2.6e-05
5 | hIL18BPa (1-192) (C129S).hFc (from UniProt O95998 31-194) (Fc fusion) | 2.05e-10
6 | hIL18BPa (1-192).His (from UniProt O95998 31-194) (receptor) | 2.1e-10
7 | hIL18BPa (58-192) (C62S, C87S, C129S).TG.hFc (from UniProt O95998 60-194) (Fc fusion) | 7.56e-09
8 | hIL18BPa (58-192) (C129D).TG.hFc (from UniProt O95998 60-194) (Fc fusion) | 2.98e-09
9 | hIL18BPa (58-192) (C129E).TG.hFc (from UniProt O95998 60-194) (Fc fusion) | 5.15e-10
10 | hIL18BPa (58-192) (C129H).TG..hFc (from UniProt O95998 60-194) (Fc fusion) | 8.44e-11
11 | hIL18BPa (58-192) (C129K).TG.hFc (from UniProt O95998 60-194) (Fc fusion) | 7.42e-11
12 | hIL18BPa (58-192) (C129S).biot.His (from UniProt O95998 60-194) (receptor) | 4e-11
13 | hIL18BPa (58-192) (C129S, C148S).TG.hFc (from UniProt O95998 60-194) (Fc fusion) | 7.3e-09
14 | hIL18BPa (58-192)(C62S, C129S).TG.hFc (from UniProt O95998 60-194) (Fc fusion) | 9e-09
15 | hIL18BPa (58-192)(C84S).TG.hFc (from UniProt O95998 60-194) (Fc fusion) | 7.38e-09
16 | hIL18BPa (58-192)(C87S, C129S).TG.hFc (from UniProt O95998 60-194) (Fc fusion) | 7.5e-09
17 | hIL18BPa (58-192)(C87S, C129S, C148S).TG.hFc (from UniProt O95998 60-194) (Fc fusion) | 9.7e-09
18 | hIL18BPa (58-192).TG.his (from UniProt O95998 60-194) (receptor) | 4.1e-10
19 | hIL18BPa (64-192).TG.hFc (from UniProt O95998 66-194) (Fc fusion) | 7e-09
20 | hIL18BPa(58-192)(C62S, C129S, C148S).TG.hFc (from UniProt O95998 60-194) (Fc fusion) | 6.7e-09
21 | hIL18Rβ.SG.hIL18BPa (58-192).TG.hFc (Fc fusion) | 2.3e-09
22 | hIL18Rβ.hIL18BPa (1-192) (C49S, C129S).hFc (Fc fusion) | 1.38e-09
